Laboratory results from patent US20060251644A1.
Where two headings read alike, the source gives them in different places.

Columns and labels:
[1] = target: recombinant human IgE, SE44 (human) (UniProt P01854); assay: ELISA titration on plate-coated SE44 (human IgE); Fab detected with biotin-sheep anti-human Fd and Neutra-avidin-AP (Example 6)
[2] = target: recombinant human IgE, SE44 (human) (UniProt P01854); assay: as above; remark: listed apart in the source

B1: murine TES-C21 Fab (Fab, from another filing, V domains shown)
VH: QVQLQQSGAELMKPGASVKISCKTTGYTFSMYWLEWVKQRPGHGLEWVGEISPGTFTTNYNEKFKAKATFTADTSSNTAYLQLSGLTSEDSAVYFCARFSHFSGSNYDYFDYWGQGTSLTVSS
VL: DILLTQSPAILSVSPGERVSFSCRASQSIGTNIHWYQQRTDGSPRLLIKYASESISGIPSRFSGSGSGTEFTLNINSVESEDIADYYCQQSDSWPTTFGGGTKLEIK
B1 was tested, and the EC50 (read off the curve) [1] was 0.05 µg/mL and the EC50 (read off the curve) [2] was 0.04 µg/mL.
